The series concerns the target prostate-specific antigen (PSA) (UniProt P07288).

prostate-specific antigen (PSA), sequence (P07288 25-261): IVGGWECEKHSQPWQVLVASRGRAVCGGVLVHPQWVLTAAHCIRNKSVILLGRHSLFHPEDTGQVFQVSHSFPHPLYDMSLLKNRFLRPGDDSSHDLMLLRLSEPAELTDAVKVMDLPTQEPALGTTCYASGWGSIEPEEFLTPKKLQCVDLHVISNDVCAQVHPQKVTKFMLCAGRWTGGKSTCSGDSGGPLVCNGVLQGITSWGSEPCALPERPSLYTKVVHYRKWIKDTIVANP

Regarding Human glandular kallikrein (hK2), the “PSA enzymatic activity on chromogenic substrate S-2586 (absorbance at 405 nm); 100 ng hK2 added to 2.5 ug PSA from L1/PSA/IL2 supernatant” value was “The activity of PSA is increased 500% when incubated with hK2”.

The values are drawn from patent US20040219163.
